One assay deals with T1, Flag-CBFβ I55D (UniProt Q13951 1-170, I55D).
T1 construct: source: 293T, transfected, in lysate
T1 sequence: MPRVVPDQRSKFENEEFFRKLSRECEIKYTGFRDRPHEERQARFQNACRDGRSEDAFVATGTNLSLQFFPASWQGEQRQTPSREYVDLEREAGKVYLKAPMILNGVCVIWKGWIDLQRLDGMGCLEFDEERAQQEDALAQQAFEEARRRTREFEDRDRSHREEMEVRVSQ
Put plainly: co-IP; 293T cells co-transfected with Flag-CBFβ (4 μg) and untagged Vif (4 μg); lysates after 48 h; anti-Flag immunoprecipitation; co-precipitated Vif quantified by western blot (Odyssey) relative to wild type set to 100%; for the CBFβ mutants endogenous CBFβ was first knocked down by siRNA against the 3' UTR (Fig. 5, 7) and cells were treated with MG132 (5 μM, 16 h) in Fig. 7. The conditions noted are these: partners not purified. In general terms: In western blotting, separated proteins are transferred to a membrane and probed.

The target of the next assay is T2, Flag-CBFβ F68D (UniProt Q13951 1-170, F68D).
T2 construct: source: 293T, transfected, in lysate
T2 sequence: T1 sequence with D55I, F68D
Described as above. The settings on record: partners not purified.

Another assay has as its target T3, Flag-CBFβ I55A–F68D (UniProt Q13951 1-170, I55A | F68D).
T3 construct: source: 293T, transfected, in lysate
T3 sequence: T1 sequence with D55A, F68D
Described as above. The conditions noted are these: partners not purified.

The target of a further assay is T4, Flag-CBFβ I55D–F68D (UniProt Q13951 1-170, I55D | F68D).
T4 construct: source: 293T, transfected, in lysate
T4 sequence: T1 sequence with F68D
The description is as above. The conditions noted are these: partners not purified.

The target in assay [1] is T5, Flag-CBFβ (core-binding factor β), wild type (UniProt Q13951 1-170).
T5 construct: Flag-CBFβ expression plasmid obtained from Addgene; plasmid number not given; also called CBFβ-WT; WT CBFβ; source: 293T, transfected, in lysate
T5 sequence: T1 sequence with D55I
The assay is described as above. The settings on record: partners not purified.

In assay [2] the target is T5, Flag-CBFβ (core-binding factor β), wild …. Kind of assay: cell-based or functional assay.

Five molecules from paper PMC5356271, “Identification of a tripartite interaction between the N-terminus of HIV-1 Vif and CBFβ that is critical for Vif function” (Retrovirology, 2017) can be followed below.

Numbering of substitutions follows the chain as printed. Names and notes keep the numbering of the source.

B1: HIV-1 Vif, wild type (natural protein)
chain: not shown
notes: HIV-1 Vif; Untagged; also called WT Vif; source: 293T, transfected, in lysate
B1: the “binding efficiency relative to CBFβ-WT (100%)” value is about 15% with Flag-CBFβ I55D, about 28% with Flag-CBFβ F68D, about 8% with Flag-CBFβ I55A–F68D and about 8% with Flag-CBFβ I55D–F68D.

B2: HIV-1 Vif 9IVW11 > A3 (triple-alanine substitution mutant) (natural protein)
chain: not shown
notes: HIV-1 Vif; Untagged; also called 9IVW11 > 3A; source: 293T, transfected, in lysate
Take B2: the “binding efficiency relative to WT Vif (100%)” value in assay [1] worked out at 0.3%.

B3: HIV-1 Vif 5WQVM8 > A4 (quadruple-alanine substitution mutant) (natural protein)
chain: not shown
notes: HIV-1 Vif; Untagged; also called 5WQVM8 > 4A; source: 293T, transfected, in lysate
In the case of B3, the “binding efficiency relative to WT Vif (100%)” value in assay [1] stood at 2%.

B4: HIV-1 Vif V7A–M8A (natural protein)
chain: not shown
As for B4, the “infectivity of virus produced with A3G in CBFβ-depleted (siRNA) 293T cells, relative to WT Vif with control siRNA (100%)” value in assay [2] was 8%.

B5: HIV-1 Vif W11A (natural protein)
chain: not shown
B5: in assay [2], the “infectivity of virus produced with A3G in CBFβ-depleted (siRNA) 293T cells, relative to WT Vif with control siRNA (100%)” value was 4%.
